In this experiment the target is SARS-CoV-2 RBD-his tag protein (SARS-CoV-2, ancestral (Wuhan-Hu-1/WA1), UniProt P0DTC2). Description: ELISA.

B1: Clone 2 (recombinant mAb, mouse variable regions on human IgG1) (antibody, V domains shown)
VH: EVQLQQSGPELVKPGASVKISCKASGYSFTGYSMNWMKQSPEKSLEWIGEINPSTGGTTDNQKFKAKATLTVDKSSSTAYMQLKSLTSEDSAVYYCARSRGDYWGQGTSVTVSS
VL: DIVLTQSPASLAVSLGQRATISCRASESVEYYGTSLMQWYQQKPGQPPKVLIYAASNVESGVPARFSGSGSGTDFSLNIHPVEEDDIAMYFCQQSRKVPWTFGGGTKLEIK
Regarding B1, the binding result is listed as “binds”.

B2: Clone 6 (recombinant mAb, mouse variable regions on human IgG1) (antibody, V domains shown)
VH: QVQLQQSAAELARPGASVKMSCKASGYTFTSYTMHWVKQRPGQGLEWIGYINPTSGYTEYNQNFKDKTTLTADKSSSTAYMQLNSLTSEDSAVYYCAREGHRVGPAYWGQGTLVTVSA
VL: not shown
Take B2: the binding result is listed as “binds”.

Source of the values: paper PMC8722602 (bioRxiv, 2021).
